Test results published in patent publication US20230051954A1 (published 2023).
Numbering of substitutions follows the chain as printed. Names may count otherwise.

T1: cynomolgus monkey (Macaca fascicularis) transferrin receptor 1 (cynomolgus monkey (Macaca fascicularis), UniProt Q5RDH6 89-760 (Pongo abelii entry), limits assumed)
T1 construct: Recombinant protein used in ELISA and SPR; also called cTfR1; cyno TfR1
T1 chain: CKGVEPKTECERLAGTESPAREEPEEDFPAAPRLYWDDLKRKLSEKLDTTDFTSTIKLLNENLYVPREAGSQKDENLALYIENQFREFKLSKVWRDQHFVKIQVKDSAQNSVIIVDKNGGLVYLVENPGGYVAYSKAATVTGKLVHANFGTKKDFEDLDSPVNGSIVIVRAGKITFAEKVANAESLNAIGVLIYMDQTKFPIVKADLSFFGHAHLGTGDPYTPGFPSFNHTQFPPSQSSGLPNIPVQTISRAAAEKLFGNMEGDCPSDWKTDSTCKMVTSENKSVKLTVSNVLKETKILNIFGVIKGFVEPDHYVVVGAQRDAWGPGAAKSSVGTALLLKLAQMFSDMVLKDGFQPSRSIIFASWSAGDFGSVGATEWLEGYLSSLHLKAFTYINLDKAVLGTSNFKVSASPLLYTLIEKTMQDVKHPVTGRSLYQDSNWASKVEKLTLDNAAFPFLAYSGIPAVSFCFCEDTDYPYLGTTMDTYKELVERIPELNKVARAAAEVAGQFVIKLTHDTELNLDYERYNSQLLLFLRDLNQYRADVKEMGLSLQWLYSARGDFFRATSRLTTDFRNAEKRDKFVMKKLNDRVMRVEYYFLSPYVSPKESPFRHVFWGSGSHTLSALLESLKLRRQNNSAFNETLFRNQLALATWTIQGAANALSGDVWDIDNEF

B1: 3M12 (VH3/Vk2) Fab conjugated to DMPK-targeting oligonucleotide ASO300 (Fab, V domains shown)
VH: QVQLQESGPGLVKPSQTLSLTCSVTGYSITSGYYWNWIRQPPGKGLEWMGYITFDGANNYNPSLKNRVSISRDTSKNQFSLKLSSVTAEDTATYYCTRSSYDYDVLDYWGQGTTVTVSS
VL: DIQMTQSPSSLSASVGDRVTITCRASQDISNFLNWYQQKPGQPVKLLIYYTSRLHSGVPSRFSGSGSGTDFTLTISSLQPEDFATYFCQQGHTLPYTFGQGTKLEIKR
notes: Fab covalently conjugated to antisense oligonucleotide ASO300 (linker of Formula (C)); also called 3M12 (VH3/Vk2) conjugate; DMPK oligo conjugate
B2: 3M12 (VH4/Vk3) Fab conjugated to DMPK-targeting oligonucleotide ASO300 (Fab, V domains shown)
VH: B1 VH with S23T, M49I
VL: B1 VL with F87Y
notes: Fab covalently conjugated to ASO300; also called 3M12 (VH4/Vk3) conjugate; DMPK oligo conjugate
B3: 5H12 (VH5-C33D/Vk4) Fab conjugated to DMPK-targeting oligonucleotide ASO300 (Fab, V domains shown)
VH: QVQLVQSGAEVKKPGASVKVSCKASGYSFTDYDINWVRQAPGQGLEWMGWIYPGSGNTRYSERFKGRVTITRDTSASTAYMELSSLRSEDTAVYYCAREDYYPYHGMDYWGQGTLVTVSS
VL: DIVMTQSPDSLAVSLGERATINCRASESVDGYDNSFMHWYQQKPGQPPKLLIFRASNLESGVPDRFSGSGSGTDFTLTISSLQAEDVAVYYCQQSSEDPWTFGQGTKLEIKR
notes: Fab covalently conjugated to ASO300; also called 5H12 (VH5-C33D/Vk4) conjugate
B4: 5H12 (VH5-C33Y/Vk4) Fab conjugated to DMPK-targeting oligonucleotide ASO300 (Fab, V domains shown)
VH: B3 VH with D33Y
VL: B3 VL
notes: Fab covalently conjugated to ASO300
B5: 5H12 (VH5-C33Y/Vk3) Fab conjugated to DMPK-targeting oligonucleotide ASO300 (Fab, V domains shown)
VH: B3 VH with D33Y
VL: B3 VL with M4L, G72R
notes: Fab covalently conjugated to ASO300; also called 5H12 (VH5-C33Y/Vk3) conjugate
B6: 3A4 (VH3-N54S/Vk4) Fab conjugated to DMPK-targeting oligonucleotide ASO300 (Fab, V domains shown)
VH: EVQLVQSGSELKKPGASVKVSCTASGFNIKDDYMYWVRQPPGKGLEWIGWIDPESGDTEYASKFQDRVTVTADTSTNTAYMELSSLRSEDTAVYYCTLWLRRGLDYWGQGTLVTVSS
VL: DIVMTQSPLSLPVTPGEPASISCRSSKSLLHSNGYTYLFWFQQRPGQSPRLLIYRMSNLASGVPDRFSGSGSGTDFTLKISRVEAEDVGVYYCMQHLEYPFTFGGGTKVEIKR
notes: Fab covalently conjugated to ASO300; also called 3A4 (VH3-N54S/Vk4) conjugate
B7: 3A4 (VH3-N54T/Vk4) Fab conjugated to DMPK-targeting oligonucleotide ASO300 (Fab, V domains shown)
VH: B6 VH with S55T
VL: B6 VL
notes: Fab covalently conjugated to ASO300; also called 3A4 (VH3-N54T/Vk4) conjugate
B8: 3A4 (VH3/Vk4) Fab conjugated to DMPK-targeting oligonucleotide ASO300 (Fab, V domains shown)
VH: B6 VH with S55N
VL: B6 VL
notes: Fab covalently conjugated to ASO300; also called 3A4 (VH3/Vk4) conjugate

What follows are binders tested against T2, recombinant human transferrin receptor 1 (human, UniProt P02786 89-760) (assay: ELISA, plate-coated human TfR1, Fab-ASO300 conjugate; printed as 'Conjugate binding affinity ELISA').
T2 construct: Recombinant protein used in ELISA and SPR; also called hTfR1; huTfR1
T2 sequence (P02786 89-760 limits assumed): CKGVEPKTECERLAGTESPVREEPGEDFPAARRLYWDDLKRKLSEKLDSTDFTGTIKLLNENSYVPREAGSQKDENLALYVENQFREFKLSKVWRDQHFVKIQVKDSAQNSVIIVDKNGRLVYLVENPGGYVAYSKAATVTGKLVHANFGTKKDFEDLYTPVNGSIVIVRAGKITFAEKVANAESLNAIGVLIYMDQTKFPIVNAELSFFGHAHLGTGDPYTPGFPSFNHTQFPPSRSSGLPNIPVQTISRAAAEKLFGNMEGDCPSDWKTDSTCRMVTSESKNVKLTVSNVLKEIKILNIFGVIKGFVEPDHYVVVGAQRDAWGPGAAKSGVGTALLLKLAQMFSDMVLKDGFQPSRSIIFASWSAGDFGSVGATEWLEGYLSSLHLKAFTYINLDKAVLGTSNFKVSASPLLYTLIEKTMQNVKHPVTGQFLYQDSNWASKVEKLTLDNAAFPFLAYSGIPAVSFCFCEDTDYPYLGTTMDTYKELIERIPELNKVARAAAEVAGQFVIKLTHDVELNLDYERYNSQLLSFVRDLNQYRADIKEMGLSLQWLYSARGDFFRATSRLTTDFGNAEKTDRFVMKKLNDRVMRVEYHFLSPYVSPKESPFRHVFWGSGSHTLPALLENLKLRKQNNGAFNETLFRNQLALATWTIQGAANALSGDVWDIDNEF

EC50	Binder
2.2 nM	B1
1.7 nM	B2
110 nM	B3
23.7 nM	B4
33.4 nM	B5
2.9 nM	B6
2.8 nM	B7
2.8 nM	B8

Molecular target: T1, cynomolgus monkey (Macaca fascicularis) …
Experiment: ELISA, DMPK oligo (ASO300) conjugate binding to cyno TfR1

EC50	Binder
2.26 nM	B1
1.85 nM	B2
10.2 nM	B3
13.9 nM	B4
4.1 nM	B6
5.12 nM	B7
7.59 nM	B8

Each binder was assayed against T2, recombinant human transferrin receptor 1 (assay: ELISA, DMPK oligo (ASO300) conjugate binding to hTfR1).

EC50	Binder
1.14 nM	B1
1.18 nM	B2
110 nM	B3
13.9 nM	B4
2.71 nM	B6
2.84 nM	B8

Molecular target: T1, cynomolgus monkey (Macaca fascicularis) …
Experiment: ELISA, plate-coated cyno TfR1, Fab-ASO300 conjugate; printed as 'Conjugate binding affinity ELISA'

EC50	Binder
2.9 nM	B1
2.1 nM	B2
10.2 nM	B3
2.3 nM	B5
7.8 nM	B6
4.7 nM	B7
7.6 nM	B8
